The source of these data is the DeepSol protein solubility set.

The series can be described thus: soluble on expression in E. coli; label from the status in PepcDB or PDB records.
Take “MNVGYLCTYTPKELIDAAGFTPIRIFAGDMQISLATAHIQSYACSQARGSLERALRGELDVQAVVFTRCCDTLMRLADIWERNTDMRVYNIEFPTRVEERSKDYYFNELKDFVKVLEEWGGGVTLESLRESLKLYHELEEKLKRLFSLKPDYEAAKRVQEMNVREAIKFVDERLRKAESEGGKPRVLITGSVCPFVEVYTLFEEAGFALKDDICTGTRFFTFNTPPREIGSVDEGLRFLVDKYFEKAPCPTKHFPNDDRFKYILEMAKDCDGVVFLLLKFCEPHFYDYPQLKERLEEMGKKVLLLELEFPIASIEQLRTRIEAFYEVIA”: the “soluble on expression in E. coli” value is on record as “not soluble”.

Consider “MNVIEGVVATPNARVAIAIARFNNFINDSLLDGAIDALKRIGQVSDDNITVVWVPGAYELPLVANVLAKTNRYDAVIALGTVIRGGTAHFEYVAGEASSGLSSVAMNSDIPVAFGVLTTESIEQAIERAGTKAGNKGAEAALTALEMINVIKAIKG”, for which the “soluble on expression in E. coli” value is “not soluble”. For “MNVIVEISDRLGMDYYFVSVTTTAKSLQLNSPKKYYKIWHQEIPYHQITEWHLTQQEDIQEISFAWQETFYRFVDYGTGIVPYLTQFCKVMR”, the “soluble on expression in E. coli” value is “not soluble”. Consider “MNVTRKKGPLYLQIKNIIRDRILHGVYAIHTNIPSEPQLEEEFKVSKITVRNAIKELAQEGYLEKKSGKGTKVIRNTSATKLSKGKKFTEVLVEEGYKVQKKLLKAEIVHNEEGTVPFRLFGKESFRIERLYTLNDAPYIHYTHYFSAHMASTDLSDFDLQSLYDLVEDRGIHLENFRDEFAVGLAPSFVAEALGEKEGTALLKRMRYSYDEVGEVIEYSEGYYNTEMQHYVVNYDV”, for which the “soluble on expression in E. coli” value was “not soluble”.

Regarding “MNVTSKPGELVPESDVAAIMRGTHGDPFRVLGMHGGGGAPLSVRVFAPQAAEVAVLGQGGEVLAPLERIGAEGFFAGTVPGEEKFPYRLRFVSGPHEWEADDPYRFPEVLG”, the “soluble on expression in E. coli” value is “not soluble”.

As to “MNYLEGVGSKKGGGGIASESQFNLQRRKEVESLLSKGENVPYTFQDEKDDQVRSNPYIYKNHSGKLVCKLCNTMHMSWSSVERHLGGKKHGLNVLRRGISIEKSSLGREGQTTHDFRQQQKIIEAKQSLKNNGTIPVCKIATVKNPKNGSVGLAIQVNYSSEVKENSVDSDDKAKVPPLIRIVSGLELSDTKQKGKKFLVIAYEPFENIAIELPPNEILFSENNDMDNNNDGVDELNKKCTFWDAISKLYYVQFFFKQAEQEQADV”, the “soluble on expression in E. coli” value is “soluble”. As for “MNYQVLLYYKYTTIDDPEQFAQDHLAFCKAHHLKGRILVSTEGINGTLSGTKEETEQYMAHMHADERFKDMVFKIDEAEGHAFKKMHVRPRKEIVALDLEDDVDPRHTTGQYLSPVEFRKALEDDDTVIIDARNDYEFDLGHFRGAIRPDITRFRDLPDWIKENKALFTDKKVVTYCTGGIRCEKFSGWLLKEGFEDVAQLHGGIATYGKDPETKGQYWDGKMYVFDDRISVDINQVEKTIIGKDWFDGKPCERYINCANPECNKQILVSEENETKYLGACSYECAKHERNRYVQANNISDNEWQQRLTNFDDLHQHALEHHHHHH”, the “soluble on expression in E. coli” value is “soluble”. In the case of “MNYTTEFKLGTDGLDVVPGATNTFEMPEGVIPSANATVYFYSGGMPESATANYTGAGNLWSFTSTNGIDSSAGAIRVEITQGRNFGDDPGLVTATATTRAWNEPPLVTVDQSVSGETKFAFSIPVGKPGNDGISAYAQAHAQGFNGSVDDWLESLRGANGKSAYELAVTQGFQGSSADWLNSLKGATGKSAYEVAVAQGFTGALAEWVESLKGVAGKSAYDIALDAGYKGSHLDWLNSLKGGKGDKGDHGKSAYQVAFDAGFSGTEAEWLESLKAPSAPAVGGYKELANGVLWYCRPRYNTGRCTVPDTGWGAYDYETAEHTTKFVIEDGLFEDHGCYVVPDASNLPTDDLRLRMTRGVNRGIHHAGRMTNRSDLVPPYSATTSYFIDRWAAKFYGWYYVMLSPQESAQFLADTDLEKIEVDVQPVTFSGVDVTNWAPGGTETYFLAKEQGLLVPIYKGASRHTVSATGETIVALWFRVGVYTHRSNIGSDNHSFDGINGEPDGWNLHDVDVKFWSTNVAQGMKFSAKIRN”, the “soluble on expression in E. coli” value was “not soluble”. Take “MPADRYATGNGFTGIIRTRHQTFKRHRSAHRRNGQNPIGLPARSRWQPAGNQQLLIFRRLMQNKKQPAQAVFLAASLTPTAAPSSLPVGKR”: the “soluble on expression in E. coli” value is recorded as “not soluble”. In the case of “MPAFRMPPSTKVEYTSFGTKLSGAMKKIGLLSDTHGYIDEKYRIHFADCDEIWHAGDIGSVTVADYLSGLAPLRAVYGNIDGQDIRLQYPEVLRFCVEEVKVFMTHIGGYPGRYEPRIYRMLVQNPPRLFVCGHSHILKAMYDKKLDMLHLNPGAAGKYGFHAVRTLMRFVIDGRDIRDLQVIELADR”, the “soluble on expression in E. coli” value is recorded as “not soluble”. As for “MPAFVDLEELLATRLLVQGNSGSGKSHLLRRLLEQSSSWVQHCVIDPEGDFVTLADKFGHVIVEAQRSEQELMRIAYRIRQHRVSVVLNLEGLDTEQQMRAVGTFLGALFDVERDYWYPMLVVVDEAQLFAPAVAGEVSDEARKISLSAMTNLMCRGRKRGLAGVIATQRLAKLAKNVAAEASNFLIGRTFLDIDMVRAADLLGMERRQAEMFRDLERGHFVALGPALSRRSLRIIIGSVETLARSSSPKLMPLPKERVDVKELVFTASQEEILIPFKQSREPVKEKSIHAILEKAVNKKRELLAENSSLFPELSVVDRDLQAECIIREILEDPEAFYRSTAVLYQDFLVRCRIHGLSGDFLNLSQFRRKLAIAQACVDKETAVSENWKRILYISESLEDDVQGVFLNVAQAALGGKPCPSDAFLARLYGTHSLSRARRLLTYFEERGLIVIHTHFSGQRIIAFPDLGVETAPGDPKEPI”, the “soluble on expression in E. coli” value is given as “not soluble”.

“MPAFVERTPSAEVPRQVLRPHAEHAFAAELASLAGQDDRPRPARWRLSPWAVATYLLGGTLPDGTVITPKYVGPRRVVEVAVTTLATDRALLLLGVPGTAKTWVSEHLAAAVSGDSTLLVQGTAGTPEEAIRYGWNYARLLAHGPGRDALVPSPVMRAMTEGATVRVEELTRIPADVQDSLITLLSEKTLPIPELGEEVQAVRGFNLIATANDRDRGVNDLSSALRRRFNTVVLPLPESAEAEVDIVTRRVDQIGRSLDLPSAPDGTDEIRRVVTVFRELRDGLTSDGRTKVKSPSGPLSTAEAISVVTGGLALCAHFGDGVLRAGDLAAGVLGAVVRDPGTDRVVWQEYLETVVREREGWQDFYRACREVTALEHHHHHH”: the “soluble on expression in E. coli” value is on record as “not soluble”. Turning to “MPAGHEDIGLPQDDEAFMRYRERRIQELCGKVEEVVSEKELIEKTKSLRMIVHFYKPEFKRCKTMDKGLEEVKDCFPGIRFYRVNAEICPVVARKLEIRVLPFLGFFKDGYFVDQVVGFEKLGGDSVEPEVLKKRILDSNIFKPISSI”, the “soluble on expression in E. coli” value is given as “not soluble”.

In the case of “MPDESAQVRFLIVGRTGWIANMVAELLEQRGERYAFASFRLEQREACELELDALRPQRVLNCAGVTGRPNVDWCEDHRRETVRSNVLGVLNLADCCASRGIHLTNFATGCLYHYDDGEHRPTAEGGRPFTEDDPPNFFGSYYSRTKAMVEELLRSAFDNVLILRLRMPVSDDLSPRSFVAKIARYEKVVNIPNSMTVLTELLPVALDMSERGLTGVYNFTNPGSISHNEVLELYRKYIDPKFQWKNFTLEEQAKILKAGRSNCELDVRKLLRDNPGAQIREVHAAMEEVFRRMQAKGVKPLAAP”, the “soluble on expression in E. coli” value is recorded as “not soluble”. With “MPDHGPAFTVKIAETEAELHAAQRLRYDVFVRELGGSGALVDHQAGLERDRFDPFFDHMLCINNRSGQVVGVYRLLRDEQAQSAGQFYSEDEYDLGVLKRSGRRLLELGRSCVHPDYRGGMAMYHLWNGLADYVEQHGIEVLFGVASFHGTDVEALAQPLSMLYHNHLAPEDLRVRTQPAHYVDMNRITPEALDRRRAMLEVPSLIKAYLRLGGFVGDGAYIDHAFNTTDVCLILDTARMNERQRRIYGGG”, the “soluble on expression in E. coli” value is reported as “not soluble”. With “MPDHLGDDMRKTKKDDTKEEEKNFQALDEGDIAVLKRYGQGPYAEQLKTLDADIENCLKKVNELSGVKESDTGLAPPALWDIAADKQAMQQEQPLQVARCTKIITSDKHDPRYLINVKQFAKFVVDLADSVAPTDIEEGMRVGVDRNKYQIHLPLPAKIDPTVTMMQVEEKPDVTYSDVGGCKDQIEKLREVVETPLLHPERYVNLGIEPPKGVLLYGPPGTGKTLCARAVANRTDACFIRVIGSELVQKYVGEGARMVRELFEMARTKKACLIFFDEIDAVGGARFDDGQGGDNEVQRTMLELINQLDGFDPRGNIKVLMATNRPDTLDPALMRPGRLDRKVEFALPDLAGRAHILKIHAKQMSVERDIRYDLLARLCPNSTGAEIRSVCTEAGMFAIRARRKVATEKDFLEAINKVVKGYAKFSATPRYLTHN”, the “soluble on expression in E. coli” value is recorded as “not soluble”.

Regarding “MPDYDLITILGPTASGKTPFAAALAHELNTEIISADSRQIYRGMDLGTGKDLADYTVDGHPIPYHLIDIADPGYKYNVFEYQRDFLISYESIKQKGCLPVLCGGTGMYLESVLKGYKLMPVPENPELRARLANHSLEELTEILKQYKTLHNSTDVDTVKRAIRAIEIEEYYAVHPVPEREFPKLNSLIIGVDIDRELRREKITRRLKQRLDEGMVDEVRRLTEQGISPDDLIYYGLEYKFLTLYVIGKLTYEEMFTELETAIHQFAKRQMTWFRGMERRGFTIHWVSAELPMEEKIAFVIEKLRGNLEHHHHHH”, the “soluble on expression in E. coli” value was “soluble”. As for “MPEFTNNPVAECDTVFSEKDGKKIVDFIIYPAKNGDQWVGTAVEAKSMGFGGELKVLVGFDAEGKIYNYSLLSHAETPGLGSKAADWFKEGNKGSIKGMNPGEQPLTVSKDGGQVDAITASTITSRAFLNAVNAAYGAYKGDGGANGTTGASQKAVQKSETAIVDSVVIKLEHHHHHH”, the “soluble on expression in E. coli” value was “soluble”. For the sequence “MPENLQLVIITGMSGAGKTVAVQSFEDMGYFCIDNLPPSLIPKFWELIKESGKVTKIALVIDLRSRTFFREIQDMLVELENTNFIDTTILFLDATDEELVSRYKETRRAHPMAMDGLVTEGIRKERAMLEEIKADAQLVIDTTDLSPRQLRERLNKELATRETHEFRVEMVSFGFKYGLPIDADIVMDVRFLPNPHYIDELRPLTGMDQPVYDYVMGFPETDEFYTKFIDLLRTVLPGYKKEGKSSVTIAIGCTGGQHRSVALTERVGAELKEEDYHVNITHRDRLKRKETVNRS”, the “soluble on expression in E. coli” value is given as “not soluble”.

For “MPEQLKQRVETCYQQAEAFFKRRFPRPEVSFKLRGQKAGVAHLHENLLRFNLQLYRENQEDFLRQTVAHEVAHLVAHQLFGDRIQAHGEEWQLIMRGVYELPPNRCHNYDVQRRAVTRYIYRCPCPQSDFPFTAQRHKLVHQGRRYLCKRCREVLVYSGETRVE”, the “soluble on expression in E. coli” value is “soluble”. As to “MPETEEISKGLEDVNIKWTRLTTIDGNKGILRYGGYSVEDIIASGAQDEEIQYLFLYGNLPTEQELRKYKETVQKGYKIPDFVINAIRQLPRESDAVAMQMAAVAAMAASETKFKWNKDTDRDVAAEMIGRMSAITVNVYRHIMNMPAELPKPSDSYAESFLNAAFGRKATKEEIDAMNTALILYTDHEVPASTTAGLVAVSTLSDMYSGITAALAALKGPLHGGAAEAAIAQFDEIKDPAMVEKWFNDNIINGKKRLMGFGHRVYKTYDPRAKIFKGIAEKLSSKKPEVHKVYEIATKLEDFGIKAFGSKGIYPNTDYFSGIVYMSIGFPLRNNIYTALFALSRVTGWQAHFIEYVEEQQRLIRPRAVYVGPAERKYVPIAERK”, the “soluble on expression in E. coli” value is “soluble”.

Regarding “MPEVIFNGPAGRLEGRYQPSKEKSAPIAIILHPHPQFGGTMNNQIVYQLFYLFQKRGFTTLRFNFRSIGRSQGEFDHGAGELSDAASALDWVQSLHPDSKSCWVAGYSFGAWIGMQLLMRRPEIEGFMSIAPQPNTYDFSFLAPCPSSGLIINGDADKVAPEKDVNGLVEKLKTQKGILITHRTLPGANHFFNGKVDELMGECEDYLDRRLNGELVPEPAAKRIR”, the “soluble on expression in E. coli” value is “soluble”.
